Measurements from the supplement of paper PMC10567573.
± gives the standard deviation.

Experiment: protein stability index of a GFP-peptide fusion (GPS, HEK-293T) (PSI 1-6); higher = more stable
[1] = treatment: DMSO, c terminus: a fixed tail appended
[2] = treatment: MLN4924 1 uM, 8 h, c terminus: a fixed tail appended
[3] = treatment: DMSO, c terminus: native
[4] = treatment: MLN4924 1 uM, 8 h, c terminus: native
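Note: 24-mer peptide tiles fused after GFP, lentivirally expressed, FACS-sorted into six equal bins by GFP/DsRed ratio, decoded by Illumina sequencing, PSI is the read-weighted mean bin number.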

| Sequence | protein stability index [1] | protein stability index [2] | protein stability index [3] | protein stability index [4] |
| --- | --- | --- | --- | --- |
| PEFELLWKDIIHNPQALSPQFTGI [INTS3] | 2.16 ± 0.15 | 2.21 ± 0.32 | – | – |
| YGLRGPHKADSIQGTARTLSPVLE [TNXB] | 3.93 ± 0.36 | 3.84 ± 0.14 | – | – |
| VQARMLSSTTILVQWKEPEEPNGQ [PTPRD] | 3.27 ± 0.34 | 3.19 ± 0.35 | – | – |
| EFDDGSGSVLRIQPLRTPRDEAIY [PTPRD] | 3.47 ± 0.11 | 3.88 ± 0.54 | – | – |
| SALSDTEIQREIGISNALHRLKLR [PPFIA4] | 4.2 ± 0.27 | 4.17 ± 0.25 | – | – |
| TLPKSLSLPTTAPSNSSSLTLSGI [MYBL2] | 3.87 ± 0.12 | 3.83 ± 0.28 | – | – |
| TSSLRLNWEAPPGAFDSFLLRFGV [TNXB] | 2.06 ± 0.27 | 2.21 ± 0.56 | – | – |
| GLSSVSPSHLLLPPDTVSRTGLEK [SPDEF] | 4.52 ± 0.23 | 4.33 ± 0.2 | – | – |
| TDEEEGLIWVVGPVLAVVFIICIV [PTPRD] | 2.1 ± 0.4 | 2.07 ± 0.46 | – | – |
| GRTENGALAPKQELPSALESHEVP [ZNF24] | 5.24 ± 0.1 | 5.27 ± 0.086 | – | – |
| PLVTMDDAMERTVQSFRHLRRVK [NSDHL] | – | – | 3 ± 0.25 | 3.23 ± 0.18 |
| SSHSRGPLSWAPCGPIAGSRQALS | 3.42 ± 0.13 | 3.44 ± 0.17 | – | – |
| CFVLGFFYPVMLILFLVIGGMLNF [SOAT2] | 3.27 ± 0.52 | 3.53 ± 0.61 | – | – |
| KGERRREPGGYDSSSTLMSSELET [DVL3] | 5.19 ± 0.19 | 5.15 ± 0.13 | – | – |
| LNLEEDRIQIWFQNRRAKLKRSHR [HESX1] | 2.86 ± 0.18 | 3.16 ± 0.36 | – | – |
| CAECSQYLDETCTCFVRDGKTYCK [ISL2] | 4.98 ± 0.29 | 4.74 ± 0.37 | – | – |
| CERHEKGVLHKHQRALHKYSLMKR [SNX8] | 3.56 ± 0.29 | 3.8 ± 0.31 | – | – |
| IPIFNETGRFSFTLPYPVKIKVRF [HACD3] | 2.92 ± 1.2 | 2.77 ± 0.44 | – | – |
| LREKLRLREAEIARIRDEEAQRAS [LRRC45] | 4.17 ± 0.56 | 4.65 ± 0.18 | – | – |
| EPDANFPQFLHEGLSKPVYVINWF [FAM104B] | 2.37 ± 0.43 | 2.48 ± 0.36 | – | – |
| PKWGWEQLEVTCTPYLKETLNSIW [POMT2] | 2.49 ± 0.58 | 2.12 ± 0.61 | – | – |
| SRCRNSYTEQELKPLTLEALGHLG [DLC1] | 2.85 ± 0.32 | 2.99 ± 0.21 | – | – |
| GSVADTVARVLRGCLENMPEADCI [PLK2] | 2.88 ± 0.4 | 2.94 ± 0.33 | – | – |

| Sequence | protein stability index [1] | protein stability index [2] | protein stability index [3] | protein stability index [4] |
| --- | --- | --- | --- | --- |
| QFEANGYFFKRPYPFVLFYSKFHG [KMT2E] | – | 2.91 ± 1.9 | – | – |
| PTLSCEKYLTYDQLRKQKKKTGKS [ELOA2] | 3.98 ± 0.19 | 4.57 ± 0.24 | – | – |
| EFTIRDLQRLGELQSELAGVADFS [INTS4] | 3.3 ± 0.17 | 3.42 ± 0.48 | – | – |
| LRDPLTSLSHTELEAAEVILEHAH [FCHSD1] | 4.29 ± 0.25 | 4.44 ± 0.32 | – | – |
| THTQIDQQPPRLLIVHIALPSWAD [M1AP] | 2.75 ± 0.59 | 2.68 ± 0.54 | – | – |
| NVIETCKEAGVQKLILTSSASVIF [NSDHL] | 2.69 ± 0.27 | 2.86 ± 0.71 | – | – |
| RMLVAASWACAFTNALTHTVAMST [OR3A1] | 3.07 ± 0.24 | 3.18 ± 0.5 | – | – |
| CSECGESFSRSSRLMSHQRTHTG [ZNF263] | – | – | 3.02 ± 0.6 | 3.53 ± 0.95 |
| NDMSPSNNVVPIHVPPTTENKPKV [RAB11A] | 5.42 ± 0.12 | 5.33 ± 0.19 | – | – |
| FFKGLVEAVESTLQTPLDIRLKES [TRIM14] | 2.15 ± 0.33 | 2.29 ± 0.28 | – | – |
| VSSSVIEQLFFVRLVGKTPIETLI [NR2F2] | 2.74 ± 0.58 | 3.05 ± 0.37 | – | – |
| HLSRLCVRHNLGDTRLGQVSALPL [SPSB2] | 2.38 ± 0.14 | 2.54 ± 0.33 | – | – |
| VGVDRAFPLKPMVHRKSCSTGEAG [ZC2HC1C] | 3.74 ± 0.18 | 4.2 ± 0.16 | – | – |
| VGIFNTVINPMLNPIIYSFRNPDV [OR3A1] | 2.34 ± 0.48 | 3.03 ± 0.83 | – | – |
| TIKSHLKSFSMANGMNAVMMHGRS [RAB40C] | 2.54 ± 0.14 | 2.6 ± 0.23 | – | – |
| SSISPGLHSFTDHQRLMKRRKSV [KCNK9] | – | – | 5.64 ± 0.088 | 5.47 ± 0.23 |
| TQTTNDGVCQSMCHDKYTKIFNDF [ZMYND11] | 3.05 ± 0.2 | 3.27 ± 0.12 | – | – |
| DSPENMMRHIRFLKNEVERLKKQL [CCDC6] | 4.18 ± 0.31 | 4.45 ± 0.35 | – | – |
| AAARGGQCPGLGPAPTPTPPGRLG [ZBED3] | 4.36 ± 0.24 | 4.63 ± 0.34 | – | – |
| RLIRKMFSFKVSRWMGLACFRSLA [CCDC70] | 2.35 ± 0.46 | 2.29 ± 0.45 | – | – |
| PAFTVWCGSFQVTTGLQVPSAVRC [FSD1] | 2.63 ± 0.6 | 2.56 ± 0.54 | – | – |
| GSNYANFELDLGKKVLNLLKGAFP [PTPN9] | 2.29 ± 0.42 | 2.12 ± 0.35 | – | – |
